Data reported in the supplement of paper PMC10065799, “High-throughput profiling of sequence recognition by tyrosine kinases and SH2 domains using bacterial peptide display” (eLife, 2023).

Experiments:
AncSZ = test: phosphorylation enrichment, bacterial display (enrichment ratio); higher = better substrate or ligand; peptides without Tyr show the background
EPHB1 = EPHB1 (UniProt P54762); test: as above
EPHB2 = EPHB2 (UniProt P29323); test: as above
FGFR1 = FGFR1 (UniProt P11362); test: as above
Sequence of FGFR1 (P11362 whole entry, looked up): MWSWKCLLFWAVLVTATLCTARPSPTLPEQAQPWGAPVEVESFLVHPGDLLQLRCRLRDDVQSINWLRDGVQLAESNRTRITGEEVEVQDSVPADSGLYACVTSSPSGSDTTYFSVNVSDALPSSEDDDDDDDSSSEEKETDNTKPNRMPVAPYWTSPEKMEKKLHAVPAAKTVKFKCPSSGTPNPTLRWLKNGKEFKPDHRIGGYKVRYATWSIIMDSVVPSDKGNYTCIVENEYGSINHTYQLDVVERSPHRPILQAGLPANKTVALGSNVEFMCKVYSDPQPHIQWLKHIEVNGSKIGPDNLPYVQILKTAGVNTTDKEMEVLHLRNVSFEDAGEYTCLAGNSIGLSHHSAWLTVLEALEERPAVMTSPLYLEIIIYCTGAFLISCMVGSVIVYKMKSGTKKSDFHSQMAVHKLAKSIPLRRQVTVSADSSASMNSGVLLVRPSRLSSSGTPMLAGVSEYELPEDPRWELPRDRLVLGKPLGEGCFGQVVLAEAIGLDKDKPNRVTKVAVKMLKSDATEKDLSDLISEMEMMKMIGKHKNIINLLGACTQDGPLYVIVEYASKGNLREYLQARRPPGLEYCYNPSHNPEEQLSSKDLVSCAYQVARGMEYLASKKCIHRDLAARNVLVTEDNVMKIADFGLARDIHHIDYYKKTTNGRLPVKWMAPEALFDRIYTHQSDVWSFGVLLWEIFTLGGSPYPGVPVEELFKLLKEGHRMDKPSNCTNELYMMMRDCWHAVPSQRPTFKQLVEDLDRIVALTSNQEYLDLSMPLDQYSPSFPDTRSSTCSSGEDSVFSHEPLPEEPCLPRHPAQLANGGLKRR

FGFR3 = FGFR3 (UniProt P22607); test: as above
Fer (mouse) = test: as above
Fes = Fes (UniProt P07332); test: as above
Sequence of Fes (P07332 whole entry, looked up): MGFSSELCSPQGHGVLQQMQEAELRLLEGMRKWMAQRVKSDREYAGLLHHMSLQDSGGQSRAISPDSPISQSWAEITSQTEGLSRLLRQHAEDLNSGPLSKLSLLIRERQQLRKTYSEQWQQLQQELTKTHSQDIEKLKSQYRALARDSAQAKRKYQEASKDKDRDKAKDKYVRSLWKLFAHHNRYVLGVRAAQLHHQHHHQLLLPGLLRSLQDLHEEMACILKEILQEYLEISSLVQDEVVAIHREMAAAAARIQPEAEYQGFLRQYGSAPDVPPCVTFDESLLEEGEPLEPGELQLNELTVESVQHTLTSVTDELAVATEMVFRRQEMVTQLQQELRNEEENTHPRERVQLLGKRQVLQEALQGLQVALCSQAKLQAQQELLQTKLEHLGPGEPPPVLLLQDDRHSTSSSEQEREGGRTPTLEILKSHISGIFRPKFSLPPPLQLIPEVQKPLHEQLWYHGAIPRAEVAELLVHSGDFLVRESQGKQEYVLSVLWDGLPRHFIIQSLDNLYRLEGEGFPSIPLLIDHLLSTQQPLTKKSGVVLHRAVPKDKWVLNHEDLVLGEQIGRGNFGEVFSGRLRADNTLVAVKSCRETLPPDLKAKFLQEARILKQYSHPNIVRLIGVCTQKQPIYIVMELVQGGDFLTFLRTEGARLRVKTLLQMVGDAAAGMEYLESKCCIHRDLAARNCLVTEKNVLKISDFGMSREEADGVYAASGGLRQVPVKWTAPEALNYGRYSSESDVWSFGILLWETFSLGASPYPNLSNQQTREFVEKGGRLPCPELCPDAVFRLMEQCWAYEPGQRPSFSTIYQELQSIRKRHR

Fyn = Fyn (UniProt P06241); test: as above
Sequence of Fyn (P06241 whole entry, looked up): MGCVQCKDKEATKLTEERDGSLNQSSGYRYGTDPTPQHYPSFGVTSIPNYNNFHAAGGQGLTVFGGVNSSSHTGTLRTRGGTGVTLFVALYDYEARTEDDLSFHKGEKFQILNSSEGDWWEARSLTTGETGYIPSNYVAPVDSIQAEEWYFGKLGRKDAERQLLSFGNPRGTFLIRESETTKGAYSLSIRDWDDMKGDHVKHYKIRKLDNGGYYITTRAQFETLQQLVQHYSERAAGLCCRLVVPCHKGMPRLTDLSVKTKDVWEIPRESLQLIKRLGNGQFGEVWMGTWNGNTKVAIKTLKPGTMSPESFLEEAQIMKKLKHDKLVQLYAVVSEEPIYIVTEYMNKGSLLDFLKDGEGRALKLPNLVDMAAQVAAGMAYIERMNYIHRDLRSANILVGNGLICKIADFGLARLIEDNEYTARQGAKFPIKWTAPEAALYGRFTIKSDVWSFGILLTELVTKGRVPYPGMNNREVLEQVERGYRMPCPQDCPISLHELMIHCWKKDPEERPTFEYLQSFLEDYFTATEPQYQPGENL

Hck = Hck (UniProt P08631); test: as above
Sequence of Hck (P08631 whole entry, looked up): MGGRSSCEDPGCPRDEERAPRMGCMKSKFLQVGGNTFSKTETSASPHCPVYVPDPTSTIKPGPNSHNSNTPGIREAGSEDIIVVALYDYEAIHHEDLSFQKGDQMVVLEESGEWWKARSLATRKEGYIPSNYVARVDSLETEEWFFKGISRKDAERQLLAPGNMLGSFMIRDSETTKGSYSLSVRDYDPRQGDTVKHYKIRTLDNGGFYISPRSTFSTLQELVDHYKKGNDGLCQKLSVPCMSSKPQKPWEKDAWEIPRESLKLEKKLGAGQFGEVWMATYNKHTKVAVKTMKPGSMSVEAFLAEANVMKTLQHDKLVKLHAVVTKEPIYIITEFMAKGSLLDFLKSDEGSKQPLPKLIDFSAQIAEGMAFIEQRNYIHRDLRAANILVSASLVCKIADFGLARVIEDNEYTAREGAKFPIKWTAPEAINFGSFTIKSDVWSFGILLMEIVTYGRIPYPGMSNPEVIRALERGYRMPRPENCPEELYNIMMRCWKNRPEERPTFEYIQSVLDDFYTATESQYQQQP

Jak2 = Jak2 (UniProt O60674); test: as above
MERTK = MERTK (UniProt Q12866); test: as above
c-Abl (mouse) = test: as above
c-Src = test: as above
Grb2 SH2 = Grb2 SH2 (UniProt P62993); test: SH2 binding enrichment of the phosphorylated peptide, bacterial display (enrichment ratio); higher = better substrate or ligand; peptides without Tyr show the background
Sequence of Grb2 SH2 (P62993 whole entry, looked up): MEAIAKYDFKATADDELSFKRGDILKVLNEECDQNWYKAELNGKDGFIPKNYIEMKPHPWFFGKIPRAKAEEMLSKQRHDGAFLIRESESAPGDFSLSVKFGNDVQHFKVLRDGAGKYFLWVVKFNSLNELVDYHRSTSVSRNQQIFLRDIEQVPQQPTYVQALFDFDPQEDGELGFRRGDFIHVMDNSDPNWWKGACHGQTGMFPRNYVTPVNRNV

SHP2-C SH2 = test: as above
c-Src SH2 = test: as above
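Throughout, for SH2 binding enrichment of the phosphorylated peptide, bacterial display: peptide library displayed on the E. coli surface as eCPX fusions, selected cells deep-sequenced, score is each peptide's frequency after selection divided by its frequency in the input.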
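Throughout, for phosphorylation enrichment, bacterial display: 11-residue human phosphosite peptides and single-mutation variants displayed on the E. coli surface, counted by deep sequencing, each peptide's frequency after selection divided by its frequency in the unselected input library; frequency after pTyr selection over input frequency; kinase dosed for 20-30% of maximal phosphorylation in three min.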

Sequence of EPHB1 (P54762 whole entry, looked up): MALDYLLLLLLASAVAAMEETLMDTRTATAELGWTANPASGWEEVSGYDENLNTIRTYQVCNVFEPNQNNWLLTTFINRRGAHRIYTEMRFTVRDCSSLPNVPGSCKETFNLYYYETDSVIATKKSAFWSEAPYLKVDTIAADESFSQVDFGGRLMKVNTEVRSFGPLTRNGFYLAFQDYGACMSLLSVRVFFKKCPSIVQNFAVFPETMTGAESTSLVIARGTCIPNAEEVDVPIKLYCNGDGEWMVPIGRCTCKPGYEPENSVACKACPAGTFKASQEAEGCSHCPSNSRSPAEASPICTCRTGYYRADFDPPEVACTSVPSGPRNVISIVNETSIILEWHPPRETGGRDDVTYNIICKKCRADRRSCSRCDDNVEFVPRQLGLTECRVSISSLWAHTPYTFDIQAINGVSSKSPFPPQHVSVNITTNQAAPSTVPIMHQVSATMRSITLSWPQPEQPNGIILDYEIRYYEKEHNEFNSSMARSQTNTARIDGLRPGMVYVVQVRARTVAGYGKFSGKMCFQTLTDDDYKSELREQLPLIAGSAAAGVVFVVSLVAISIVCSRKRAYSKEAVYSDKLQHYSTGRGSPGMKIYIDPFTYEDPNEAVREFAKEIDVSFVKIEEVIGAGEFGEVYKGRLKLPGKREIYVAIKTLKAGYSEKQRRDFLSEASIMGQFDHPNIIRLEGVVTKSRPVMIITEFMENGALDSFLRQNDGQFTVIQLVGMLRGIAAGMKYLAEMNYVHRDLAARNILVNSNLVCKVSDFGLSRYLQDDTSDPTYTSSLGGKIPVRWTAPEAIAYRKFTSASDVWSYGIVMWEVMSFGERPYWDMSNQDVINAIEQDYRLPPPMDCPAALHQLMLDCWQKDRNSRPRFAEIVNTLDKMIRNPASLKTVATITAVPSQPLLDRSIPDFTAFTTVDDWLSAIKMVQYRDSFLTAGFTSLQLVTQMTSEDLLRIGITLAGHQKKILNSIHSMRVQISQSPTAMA
Sequence of EPHB2 (P29323 whole entry, looked up): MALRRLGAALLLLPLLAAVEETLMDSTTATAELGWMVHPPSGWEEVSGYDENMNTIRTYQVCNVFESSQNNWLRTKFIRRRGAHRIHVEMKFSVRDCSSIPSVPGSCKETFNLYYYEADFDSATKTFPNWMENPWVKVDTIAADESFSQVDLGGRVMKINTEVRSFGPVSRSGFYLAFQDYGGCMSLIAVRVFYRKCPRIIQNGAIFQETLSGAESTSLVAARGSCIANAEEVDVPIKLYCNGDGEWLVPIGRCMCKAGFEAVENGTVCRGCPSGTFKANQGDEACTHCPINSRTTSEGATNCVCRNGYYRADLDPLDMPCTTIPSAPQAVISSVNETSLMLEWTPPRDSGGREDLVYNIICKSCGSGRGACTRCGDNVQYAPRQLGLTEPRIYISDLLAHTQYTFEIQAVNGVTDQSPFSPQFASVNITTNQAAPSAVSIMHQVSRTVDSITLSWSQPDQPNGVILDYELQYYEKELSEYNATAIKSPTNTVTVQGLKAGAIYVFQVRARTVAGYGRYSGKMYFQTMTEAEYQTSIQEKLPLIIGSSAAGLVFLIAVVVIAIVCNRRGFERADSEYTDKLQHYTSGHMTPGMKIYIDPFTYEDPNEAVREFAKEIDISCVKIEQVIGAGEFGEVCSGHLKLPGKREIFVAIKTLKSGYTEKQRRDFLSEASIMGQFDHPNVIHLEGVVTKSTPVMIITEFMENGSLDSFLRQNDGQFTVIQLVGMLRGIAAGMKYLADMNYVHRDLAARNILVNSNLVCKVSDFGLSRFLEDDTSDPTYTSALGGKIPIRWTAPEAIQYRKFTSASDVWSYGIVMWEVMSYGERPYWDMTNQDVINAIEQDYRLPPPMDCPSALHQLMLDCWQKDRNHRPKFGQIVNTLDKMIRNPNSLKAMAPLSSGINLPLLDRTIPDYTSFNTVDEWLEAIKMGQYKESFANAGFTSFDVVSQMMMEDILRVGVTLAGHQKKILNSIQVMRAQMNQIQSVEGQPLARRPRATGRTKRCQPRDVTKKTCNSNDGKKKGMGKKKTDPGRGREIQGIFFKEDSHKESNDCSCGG

Row | Sequence | phosphorylation enrichment (AncSZ) | phosphorylation enrichment (EPHB1) | phosphorylation enrichment (EPHB2) | phosphorylation enrichment (FGFR1) | phosphorylation enrichment (FGFR3) | phosphorylation enrichment (Fer (mouse)) | phosphorylation enrichment (Fes) | phosphorylation enrichment (Fyn) | phosphorylation enrichment (Hck) | phosphorylation enrichment (Jak2) | phosphorylation enrichment (MERTK) | phosphorylation enrichment (c-Abl (mouse)) | phosphorylation enrichment (c-Src) | SH2 binding enrichment (Grb2 SH2) | SH2 binding enrichment (SHP2-C SH2) | SH2 binding enrichment (c-Src SH2)
1 | GIVEDYRPPLY [ACVRL1_Y421_F425L] | 0.727 | 0.382 | 0.482 | 0.387 | 0.608 | 0.399 | 0.918 | 0.455 | 0.382 | 0.675 | 0.393 | 0.59 | 0.412 | 0.859 | 0.783 | 0.429
2 | GIYEDYVEGLR [MYL6_Y89_T85I] | 1.49 | 5.82 | 6.61 | 0.965 | 0.86 | 6.33 | 1.45 | 6.03 | 3.65 | 0.946 | 1.42 | 0.727 | 4.26 | 0.697 | 0.717 | 0.51
3 | GIYKDYYRYNF [PLA2G2D_Y85_S80G] | 1.4 | 5.44 | 5.13 | 12.2 | 9.59 | 0.938 | 0.805 | 5 | 3.32 | 7.91 | 4.72 | 5.76 | 4.78 | 1.13 | 1.31 | 1.03
4 | GKMSSYAFFVQ [HMGB1_Y16] | 1.01 | 0.809 | 0.711 | 0.603 | 0.741 | 0.474 | 1.14 | 0.505 | 0.513 | 1.01 | 1.29 | 0.849 | 0.562 | 1.13 | 1.51 | 0.982
5 | GKSFIYAAFHA [KCNT1_Y563_T562I] | 1.18 | 0.787 | 0.522 | 0.452 | 0.805 | 0.672 | 1.25 | 4.67 | 2.83 | 1.32 | 1.72 | 2.75 | 3.84 | 0.893 | 1 | 0.685
6 | GKSFTYAAFHA [KCNT1_Y563] | 0.849 | 0.603 | 0.613 | 0.51 | 0.583 | 0.454 | 0.812 | 5.65 | 4.03 | 0.826 | 0.819 | 0.654 | 5.91 | 0.855 | 0.527 | 0.41
7 | GLDSSYLLRDS [SH2D1A_Y29_G27S] | 0.477 | 0.343 | 0.36 | 0.613 | 0.426 | 0.305 | 0.612 | 0.386 | 0.323 | 0.464 | 0.422 | 0.434 | 0.386 | 0.908 | 0.64 | 0.476
8 | GLSSAYGDLTS [KRT8_Y427_G429D] | 0.718 | 0.56 | 0.429 | 0.506 | 0.486 | 0.479 | 0.659 | 0.454 | 0.535 | 0.535 | 0.413 | 0.536 | 0.464 | 0.878 | 0.655 | 0.608
9 | GQECEYPPTQD [METAP2_Y137] | 1.34 | 0.866 | 0.67 | 0.584 | 0.852 | 0.609 | 1.41 | 0.534 | 0.63 | 1.24 | 0.525 | 1.06 | 0.563 | 0.918 | 0.831 | 0.521
10 | GQKVAYGGTED [ALDH3A1_Y305_G309E] | 0.747 | 0.424 | 0.471 | 0.412 | 0.63 | 0.344 | 0.939 | 0.438 | 0.402 | 0.791 | 0.417 | 0.577 | 0.412 | 0.788 | 0.549 | 0.471
11 | GRGMPYGGRGD [TGM1_Y312_R307G] | 0.476 | 0.338 | 0.325 | 0.355 | 0.449 | 0.399 | 0.476 | 0.343 | 0.4 | 0.488 | 0.379 | 0.513 | 0.402 | 0.87 | 0.648 | 0.513
12 | GRIHSYRGHLW [VHL_Y112_R107G] | 0.585 | 0.387 | 0.392 | 0.363 | 0.438 | 0.373 | 0.712 | 0.38 | 0.359 | 0.535 | 0.357 | 0.51 | 0.347 | 1.85 | 1.99 | 1.61
13 | GRLVEYDIDEV [SMS_Y134] | 1.28 | 0.709 | 1.05 | 0.494 | 0.771 | 0.658 | 1.48 | 0.508 | 0.549 | 1.45 | 0.489 | 0.902 | 0.563 | 0.812 | 0.613 | 0.845
14 | GRPLFYWLTGC [LYZL6_Y140] | 0.968 | 0.686 | 0.491 | 0.533 | 0.836 | 0.418 | 1.13 | 0.407 | 0.42 | 1.04 | 0.469 | 0.713 | 0.33 | 0.803 | 0.85 | 0.527
15 | GRPLSYWLTGC [LYZL6_Y140_F139S] | 1.12 | 0.686 | 0.664 | 0.535 | 0.793 | 0.556 | 1.33 | 0.527 | 0.503 | 1.24 | 0.411 | 0.846 | 0.397 | 0.763 | 0.681 | 0.464
16 | GRQVIYTENER [GPR143_Y231_G229V] | 0.531 | 0.441 | 0.41 | 0.435 | 0.479 | 0.382 | 0.89 | 0.407 | 0.462 | 0.552 | 0.43 | 0.537 | 0.513 | 0.729 | 0.681 | 0.558
17 | GRRNTYFASIA [ACADM_Y352_YF] | 0.722 | 0.346 | 0.423 | 0.439 | 0.507 | 0.481 | 0.556 | 0.551 | 0.423 | 0.5 | 0.466 | 0.588 | 0.615 | 0.696 | 0.528 | 0.356

Row | Sequence | phosphorylation enrichment (AncSZ) | phosphorylation enrichment (EPHB1) | phosphorylation enrichment (EPHB2) | phosphorylation enrichment (FGFR1) | phosphorylation enrichment (FGFR3) | phosphorylation enrichment (Fer (mouse)) | phosphorylation enrichment (Fes) | phosphorylation enrichment (Fyn) | phosphorylation enrichment (Hck) | phosphorylation enrichment (Jak2) | phosphorylation enrichment (MERTK) | phosphorylation enrichment (c-Abl (mouse)) | phosphorylation enrichment (c-Src) | SH2 binding enrichment (Grb2 SH2) | SH2 binding enrichment (SHP2-C SH2) | SH2 binding enrichment (c-Src SH2)
18 | GSESDYIVMPN [SCARB1_Y133] | 2.88 | 8.5 | 8.31 | 5.92 | 3.84 | 0.455 | 1.04 | 0.575 | 0.527 | 1.03 | 0.538 | 0.752 | 0.63 | 0.874 | 0.55 | 0.455
19 | GSRGKCSSGFR [ATM_Y332_Y332C] | 0.471 | 0.41 | 0.379 | 0.403 | 0.423 | 0.433 | 0.558 | 0.395 | 0.464 | 0.532 | 0.411 | 0.709 | 0.387 | 1.06 | 0.713 | 0.915
20 | GSSSSCGQHGS [HRNR_Y517_Y517C] | 0.556 | 0.342 | 0.311 | 0.363 | 0.522 | 0.38 | 0.622 | 0.4 | 0.333 | 0.448 | 0.294 | 0.411 | 0.283 | 0.982 | 0.875 | 0.553
21 | GTFVIYVRFSG [FLNB_Y1687_G1691S_YF] | 1.17 | 0.572 | 0.468 | 0.406 | 0.569 | 0.443 | 1.4 | 0.426 | 0.454 | 1.14 | 0.472 | 0.979 | 0.539 | 1.15 | 0.812 | 0.442
22 | GTVRDYPDFSP [ANXA3_Y15] | 0.759 | 0.44 | 0.559 | 0.508 | 0.587 | 0.395 | 0.79 | 0.444 | 0.49 | 0.702 | 0.364 | 0.532 | 0.372 | 0.732 | 0.623 | 0.439
23 | GVFSRHFTTFD [CLCA1_Y661_Y661H_YF] | 1.31 | 0.953 | 1.1 | 0.644 | 0.814 | 0.946 | 1.05 | 0.48 | 1.03 | 0.483 | 0.166 | 0.346 | 0.184 | 0.674 | 0.612 | 1.78
24 | GVPLGYPIKAP [ELN_Y206] | 0.563 | 0.323 | 0.388 | 0.462 | 0.399 | 0.45 | 0.573 | 0.384 | 0.388 | 0.534 | 0.419 | 0.485 | 0.427 | 0.716 | 0.666 | 0.573
25 | GVRFTYTIDGS [DCX_Y105_I104T_YF] | 1.26 | 0.458 | 0.67 | 0.601 | 0.729 | 0.384 | 1.33 | 0.426 | 0.496 | 1.24 | 0.423 | 0.715 | 0.435 | 0.87 | 0.545 | 0.475
26 | HDRREYSRFEK [ITGB7_Y758_Y753H] | 0.743 | 0.754 | 0.373 | 0.585 | 0.718 | 0.731 | 0.973 | 0.317 | 0.524 | 0.647 | 0.445 | 0.887 | 0.53 | 0.965 | 0.873 | 0.722
27 | HEGKIYEFNQV [ZNF665_Y162_YF] | 0.796 | 0.883 | 1.17 | 0.665 | 0.929 | 22.6 | 0.975 | 6.98 | 1.64 | 0.468 | 4.13 | 1.6 | 4.38 | 0.82 | 0.633 | 0.371
28 | HFNLTYRILSF [MMP23B_Y95] | 1.6 | 0.826 | 0.615 | 0.486 | 1.19 | 0.726 | 1.8 | 0.391 | 0.644 | 1.8 | 0.481 | 1.47 | 0.636 | 0.586 | 0.587 | 0.326
29 | HFVDEYDPTIE [KRAS_Y32] | 1.74 | 0.784 | 0.99 | 0.884 | 0.888 | 0.886 | 1.79 | 0.605 | 0.828 | 1.54 | 0.724 | 1.33 | 0.779 | 0.786 | 0.666 | 0.575
30 | HFVDEYDPTME [KRAS_Y32_I36M] | 1.5 | 0.727 | 0.437 | 0.424 | 0.633 | 1.11 | 1.49 | 0.614 | 0.702 | 1.33 | 0.66 | 1.31 | 0.634 | 0.802 | 0.448 | 0.717
31 | HKANEYFPVVI [ADAMTS18_Y764_L769I_YF] | 1.35 | 0.762 | 0.806 | 11.8 | 5.96 | 0.874 | 0.973 | 0.594 | 0.569 | 2.38 | 0.663 | 1.01 | 0.625 | 0.767 | 0.86 | 0.485
32 | HKLSFNEFDFE [BTK_Y40_Y40N_YF] | 1.61 | 0.829 | 0.859 | 0.795 | 0.882 | 0.788 | 1.58 | 0.834 | 0.918 | 1.53 | 0.712 | 1.02 | 0.864 | 0.789 | 0.456 | 0.471
33 | HKLSFYEFDFE [BTK_Y40_YF] | 1.73 | 0.752 | 0.786 | 1.01 | 1.36 | 0.919 | 1.73 | 1.66 | 0.989 | 2.92 | 1.75 | 1.51 | 1.24 | 0.911 | 0.846 | 3.27
